Assay: label from the status in PepcDB records

Sequence | protein production
MSLASNKKYTFACLLPKHLEGEYWTDVQKGIREAVTTYSDFNISANITHYDPYDYNSFVATSQAVIEEQPDGVMFAPTVPQYTKGFTDALNELGIPYIYIDSQIKDAPPLAFFGQNSHQSGYFAARMLMLLAVNDREIVIFRKIHEGVIGSNQQESREIGFRQYMQEHHPACNILELNLHADLNIEDSRMLDDFFREHPDVKHGITFNSKVYIIGEYLQQRRKSDFSLIGYDLLERNVTCLKEGTVSFLIAQQPELQGFNSIKTLCDHLIFRKEVACTNYMPIDLLTKENIDYYHSEGHHHHHH | not failed
MVDGEVEILRGYELRLLRCTVSFPQTGSPLESQPLDGTQSGTHPHDSLITSLLSSIEAGDYLGALSSDATKLILGDSELNLVDTVDSAEQVYSELLDKVESFVVNDSSDEIDKARRAVLVMCLAIATALWFTRCNLTGSTEGSTKCSLPLRVSESKELVEWENWAKIQLMSVGSDLLGKFSNLQHLVFARLLLFKLKDLLFEITSTETFEVRSISWWLVRVLLIHQRVLQERSSSLFEMLQVYMAEAIDHFGELEKVKSYWGANLLEDEASSITSTIHLEACVLQYIYGRIDPSRLQLESAKAAASLEFSVTGALGFRTIHQVDPKAQMVLVANTSSSNGDVRLASEKADVGPYEAWGGEAPEVYMTPKLVNNESEAGKDSVPLKPVEQALILAQCLLIERGSRHDEMQRWDMAPYIEAIDSQKSTYFVLRCFCDLLRVRWESTRGRTKGRALEMMDKLVGAINKSDPGVSNRIPLCYAVHLPTIPALRKEYGELLVSCGLVGEAITIFESLELWDNLIYCYCLLGKKSAAVDLINARLLERPNDPRLWCSLGDVTINDSCYEKALEVSNDKSVRAKRALARSAYNRGDFEKSKMLWEAAMALNSLYPDGWFALGAAALKARDVQKALDAFTFAVQLDPDNGEAWNNIACLHMIKKKSKESFIAFKEALKFKRDSWQMWENFSHVAMDVGNIDQAFEAIQQILKMSKNKRVDVVLLDRIMTELEKRNSACKSSSSSTETEASSDESTETKPCTATPAETQRQLELLGKVIQQIVKTESTAEIWGLYARWSRIKGDLTVCSEALLKQVRSYQGSEVWKDKERFKKFARASLELCRVYMEISASIGSKRELFTAEMHLKNTIKQATVSFLDSEELKELESCLEEVRNVMQKSEEEYRDTKT | failed
MSGVRFPSGSLKDVRFFLHLFFSSKYGIIYVRYLDEEGTIMKQIIISVGREFGSGGHIVAQKLAEHYDIPIFNKELLEEMARKEGYSEKALEKYDEKPVNFGFMPLPYAGGNIPIEQEIAMKQFEFIKNKADAGESFVIVGRCADEILAYNPNLVSVFITGDRESKIARVMDREGLDRKQAINKMKRMDKIRKTYHNFYCRNKWGDSRGYDICINTGKTDFDTAKNMVVECVDKLKERSE | failed
MLFSIRNFNQGVIMAGWFELSKSSDNQFRFVLKAGNGETILTSELYTSKASAEKGIASVRSNSPQEERYEKKTASNGKFYFNLKAANHQIIGSSQMYATAQSRETGIASVKANGTSQTVKDNT | failed
SPLGQIQLTIRHSSQRNKLIVVVHACRNLIAFSEDGSDPYVRMYLLPDKRRSGRRKTHVSKKTLNPVFDQSFDFSVSLPEVQRRTLDVAVKNSGGFLSKDKGLLGKVLVALASEELAKGWTQWYDLTED | not failed
MKPNIVLIMVDQMRGDCLGVNGNEFIETPNLDMMATEGYNFENAYTAVPSCIASRASILTGMSQKSHGRVGYEDGVSWNYENTIASEFSKAGYHTQCIGKMHVYPERNLCGFHNIMLHDGYLHFARNKEGKASTQIEQCDDYLKWFREKKGHNVDLIDIGLDCNSWVSRPWGYEENLHPTNWVVNESIDFLRRRDPSKPFFLKMSFVRPHSPLDPPKFYFDMYKDEDLPEPLMGDWANKEDEENRGKDINCVKGIINKKALKRAKAAYYGSITHIDHQIGRFLIALSEYGKLNNTIFLFVSDHGDMMGDHNWFRKGIPYEGSARVPFFIYDPGNLLKGKKGKVFDEVLELRDIMPTLLDFAHISIPDSVEGLSLKDLIEERNSTWRDYIHGEHSFGEDSNHYIVTKKDKFLWFSQRGEEQYFDLEKDPKELTNLINSEEYKERIDYLRKILIKELEGREEGYTDGNKLLKGYPVSTLKHIR | failed
MNRVEPPYDVKEALVFTQKMAQLSKALWKSIEKDWQQWLKPYDLNINEHHILWIAYQLNGASISEIAKFGVMHVSTAFNFSKKLEERGYLRFSKRLNDKRNTYVQLTEEGTEVFWSLLEEFDPTRNAVFKGSQPLYHLFGKFPEVAEMMCMIRHIYGDDFMEIFETSLTNIDNDFESVNGKLKKKAKDSAADEPAEELEPVNS | not failed
MSTDILSAIGLTIIFVGLVLVIVGIVSGIIKSSKKERNENQREETKTEYGGVIFIGPIPIVFGSNKDMAKMALIIGVIMVVLIIAFVVLSYVV | failed
MTPSKTTLVERCYKYIMSNEKNWSPYTVINRKSWVKNYIEPFFKDTKLIDINPVLIQTFINTTFNNCTFSSSKIRYRFISSVLKEAYRLREINENPCDFVKLPLEHHHHHH | failed
KSVFPFSNVLKQTLLKRATVFLGVPAIYTAMSKAKIPWYFRWFNRIRLFISGGAPLAEQTILDFKAKFPRAKLLEGYGLSEASPVVAVNTPERQKARSVGIPLPGLEAKAVDEELVEVPRGEVGELIVRGGSVMRGYLNMPAATDETIVNGWLKTGDFVTIDEDGFIFIVDRKKDLIISKGQNVYPREIEEEIYKLDAVEAAAVIGVKDRYADEEIVAFVQLKEGMDLGENEIRRHLRTVLANFKIPKQIHFKDGLPRNATGKVLKRVLKEQFDGNK | failed
PNARSQPSKTLFVKGLSEDTTEETLKESFDGSVRARIVTDRETGSSKGFGFVDFNSEEDAKAAKEAMEDGEIDGNKVTLDWAKPKGEGG | not failed
MANEDCPKAADSPFSSDKHAQLILAQINKMRNGQHFCDVQLQVGQESFKAHRLVLAASSPYFAALFTGGMKESSKDVVPILGIEAGIFQILLDFIYTGIVNIGVNNVQELIIAADMLQLTEVVHLCCEFLKGQIDPLNCIGIFQFSEQIACHDLLEFSENYIHVHFLEVHSGEEFLALTKDQLIKILRSEELSIEDEYQVFLAAMQWILKDLGKRRKHVVEVLDPIRFPLLPPQRLLKYIEGVSDFNLRVALQTLLKEYCEVCKSPKENKFCSFLQTSKVRPRKKARKYLYAVGGYTRLQGGRWSDSRALSCVERFDTFSQYWTTVSSLHQARSGLGVTVLGGMVYAIGGEKDSMIFDCTECYDPVTKQWTTVASMNHPRCGLGVCVCYGAIYALGGWVGAEIGNTIERFDPDENKWEVVGNMAVSRYYFGCCEMQGLIYVIGGISNEGIELRSFEVYDPLSKRWSPLPPMGTRRAYLGVAALNDCIYSVGGWNETQDALHTVEKYSFEEEKWVEVASMKVPRAGMCVVAVNGLLYVSGGRSSSHDFLAPGTLDSVEVYNPHSDTWTEIGNMITSRCEGGVAVL | failed
AYPDFAPQKFKEKTQGQVKILEDSFLKSSFPTQAELDRLRVETKLSRREIDSWFSERRKLRDSMEQAVLDSMGSGK | not failed
MTMEPRVLRREEWDSWYGSLIRAFGGVPEPAEELELFRELTRVDRSIGVWERDGEAEACVGTTGSFDFRMTVPGGAQVRAAGVTMVSVAATHRRRGVLTSMMRRQLDDVRAWGEPLAVLTASEPAIYGRFGYGAATFSLSAEIDTSRVRLSVPAGTDDVRLRYAAPADVLDACEAVYARLVPGRPGMLARRPGWERLALLDPESGRDGASPLQCVVARRGGEVTGFARFRVRPAWGPEGAGGTVVLDDLAGLDPATEAALWRFLYDVDLTSRLAVRGRPVDEAWQYQVSDIRRCRPESRDALYVRLVDVGAALAARTYQAPVDVVFEVEDAFCPWNAGRWRLSGDAKGASCERTSDGADLALSVRELGAAYLGGVRLSSLGAAGRVREVRAGALAEASVGFGSDVAPWLPHGF | failed
MRIGGTTSPIASHSFYVATRGYMDKTQSEEKNRRPLAVRDLNFTKRIAVWLSQKQITPNQISLMSIAFALLGCAILAVYHYYPAPLWLILAALSIQARLLCNLFDGMVAVEGGKKTPAGELFNDVPDRIADPLLILGAGFVTTSALGMTLAWLCALLAVLTAYIRVLGVSIGGEADFQGPMAKQHRMALLTLSLLFIAALSLFDELPTFFAYTMDLTLIVMLIGLVLTVWRRLQHIYQFHAARASSSDHQGN | failed
